# Test results published in the RNAGym collection of RNA variant scans (doi:10.1021/acssynbio.7b00057).
# B1: Pistol ribozyme (parent)
# chain: GGGUCGUUGUUCCAUAAUCGCGUGGAUAUGGCACGCAAGUUUCUACCGGGCACCGUAAAUGUCCGACUGGAGCCGUUCGGGCGGCUAUAAACAGACCUCAGGCCCGAAGCGUGGCGGCACCUGCCGCCGGUGGUAAAAAAGAUCGGAAGAGCACACGUCU
# Variants of: B1
# Assay: aptazyme ON/OFF ratio, guanine; higher = stronger switching; co-transcriptional cleavage with and without guanine
row,Variant,aptazyme ON/OFF ratio
1,G9C U10A C12U C13G,1.17
2,G9C U11A C12A C13U,1.3
3,G9C U11A C12A C13G,1.12
4,G9C U11A C12A C13A,1.26
5,G9C U10G C12U C13G,1.15
6,G9C U10G C12U C13A,1.15
7,G9C U10G C12U C13U,1.22
8,G9C U11G C13G,1.05
9,G9C U11G C13A,1.23
10,G9C U11G C13U,1.31
11,G9C U11C C12U C13U,1.14
12,G9C U11C C12U C13G,1.01
13,G9C U11C C12U C13A,1.09
14,G9U U10A U11C C12A C13A,1.06
15,G9U U10A U11C C12A C13U,1.41
16,G9U U10A U11C C12A C13G,0.991
17,G9C U10G U11A C13U,1.05
18,G9C U10G U11A C13A,1.08
19,G9C U10G U11A C13G,1.09
20,G9C U10G U11A C12G,1.27
21,G9C U10G U11A C12U,1.04

row,Variant,aptazyme ON/OFF ratio
1,G9C U10G U11A C12A,1.31
2,G9C C12A C13G,1.1
3,G9C C12A C13U,1.35
4,G9C C12A C13A,1.29
5,G9U U10A C12A C13U,1.09
6,G9U U10A C12A C13A,1.22
7,G9U U10A C12A C13G,0.84
8,G9U U10A U11G C13G,1.22
9,G9U U10A U11G C13A,1.56
10,G9C U10C U11A C12A C13A,1.06
11,G9C U10C U11A C12A C13G,1.07
12,G9C U10C U11A C12A C13U,1.11
13,G9C C12G C13A,1.28
14,G9C C12G C13U,1.26
15,G9C C12G C13G,1.14
16,G9C U10C U11C C12U C13A,1.02
17,G9C U10C U11C C12U C13U,1.03
18,G9C U10C U11C C12U C13G,1.01
19,G9C U10G U11G C12A,1.18
20,G9C U10G U11G C12U,1.13
21,G9C U10G U11G C12G,1.16

row,Variant,aptazyme ON/OFF ratio
1,G9C U10A U11A C12U C13A,1.34
2,G9C U10A U11A C12U C13U,1.42
3,G9C U10A U11A C12U C13G,1.14
4,G9C U10C C12G,1.06
5,G9C U10C C12A,1.09
6,G9C U10C C12U,1.12
7,G9C U10C U11G C12A,1.03
8,G9C U10C U11G C12G,1.09
9,G9C U10C U11G C12U,1.07
10,G9U C12U C13U,1.34
11,G9U C12U C13A,1.23
12,G9U C12U C13G,1.3
13,G9C U11G C12G C13A,1.24
14,G9C U11G C12G C13U,1.05
15,G9C U11G C12G C13G,1.07
16,G9U U10A U11G C12G C13U,1.14
17,G9U U10A U11G C12G C13A,1.1
18,G9U U10A U11G C12G C13G,1.11
19,G9C U11G C12A C13U,1.13
20,G9C U11G C12A C13G,1.03
21,G9C U11G C12A C13A,1.14

row,Variant,aptazyme ON/OFF ratio
1,G9C U10C U11C C13U,1.02
2,G9C U10C U11C C13A,1.02
3,G9C U10C U11C C13G,1.03
4,G9C U10G U11C C13U,1.06
5,G9C U10G U11C C13A,1.24
6,G9C U10G U11C C13G,1.03
7,G9U U10A U11C C12G,1.57
8,G9U U10A U11C C12A,1.72
9,G9U U10A U11C C12U,1.79
10,G9C U10C U11G,1.41
11,G9C U10C U11A,1.12
12,G9C U10C U11C,0.976
13,G9U U10A U11G C12U C13A,1.21
14,G9U U10A U11G C12U C13G,1.47
15,G9U U10A U11G C12U C13U,1.7
16,G9C U11G C12U C13G,1.25
17,G9C U11G C12U C13U,1.41
18,G9C U11G C12U C13A,1.3
19,G9C U10C U11G C12G C13U,1.11
20,G9C U10C U11G C12G C13G,1.13
21,G9C U10C U11G C12G C13A,1.04
